From patent publication US9567576B2, “Strain expressing FRSA and method for producing ethanol using same” (SOGANG UNIVERSITY RESEARCH FOUNDATION, priority 2012, dated 2017)

How the values were obtained:
[1] = molecular target: Vibrio vulnificus FrsA, wild type, SEQ ID NO: 2, + dephospho-IIA^Glc (Vibrio vulnificus, UniProt Q8DF91); test: FrsA pyruvate decarboxylation in the presence of dephospho-IIA^Glc; assay type: biochemical
Source text: (§1) Genomic DNA from V. vulnificus(3) was used as template and as primers Crrexp-F (5′-[…]-3′(SEQ ID NO: 13); BamHI restriction site is underlined) and Crrexp-R (5′-[…]-′3(SEQ ID NO: 14); PstI restriction site is underlined) are used to amplify crr gene of 522-bp in size encoding full length IIA^Glc. The amplified products were then digested with BamHI and PstI and cloned into a vector pQE30 to obtain pQE-crr. Phosphorylated and non-phosphorylated recombinant IIA^Glc proteins were overexpressed in E. coli JM109 in a medium comprising 1.0 mM phophoenolpyruvate or 1.0% glucose, respectively. […]
(§2) FrsA enzymatic analysis was performed in 50 mM sodium phosphate solution (pH 7.0) containing 1 mM DTT and various concentrations of pyruvate. […] The residual NADH in the reaction mixture was determined by measuring absorption at 340 nm. […] The amount of carbon dioxide dissolved in the reaction solution was quantified by spectrophotometry after the reaction solution was treated with 10 mM calcium hydroxide (10). Concentrations of the pyruvate and acetaldehyde in the cell lysates and reaction mixtures were determined using Pyruvate Assay Lit (BioVision, USA) and Acetaldehyde UV-method kit (Roche, USA), respectively according to the manufacturer's instruction. […]
(§3) Values of Km and Kcat were calculated as follows. […]

[2] = molecular target: Vibrio vulnificus FrsA, wild type, SEQ ID NO: 2, + phospho-IIA^Glc (Vibrio vulnificus, UniProt Q8DF91); test: FrsA pyruvate decarboxylation in the presence of phospho-IIA^Glc; assay type: biochemical
Sequence of Vibrio vulnificus FrsA, wild type, SEQ ID NO: 2, + phospho-IIA^Glc (Q8DF91 whole entry): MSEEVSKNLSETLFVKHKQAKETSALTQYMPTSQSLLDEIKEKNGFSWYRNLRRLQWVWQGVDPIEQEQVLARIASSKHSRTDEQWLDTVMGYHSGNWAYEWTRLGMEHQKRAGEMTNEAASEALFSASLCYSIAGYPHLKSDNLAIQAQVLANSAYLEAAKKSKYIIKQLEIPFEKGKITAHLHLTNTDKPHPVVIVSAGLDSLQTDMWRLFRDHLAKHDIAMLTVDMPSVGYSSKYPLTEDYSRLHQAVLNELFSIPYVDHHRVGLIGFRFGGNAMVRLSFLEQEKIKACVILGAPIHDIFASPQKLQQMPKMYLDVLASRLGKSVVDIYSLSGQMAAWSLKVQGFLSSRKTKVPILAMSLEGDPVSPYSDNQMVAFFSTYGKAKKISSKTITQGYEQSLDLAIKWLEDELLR
Sequence of Vibrio vulnificus FrsA, wild type, SEQ ID NO: 2, + phospho-IIA^Glc (A0A3Q0L1G8 entry or part of it, further chain): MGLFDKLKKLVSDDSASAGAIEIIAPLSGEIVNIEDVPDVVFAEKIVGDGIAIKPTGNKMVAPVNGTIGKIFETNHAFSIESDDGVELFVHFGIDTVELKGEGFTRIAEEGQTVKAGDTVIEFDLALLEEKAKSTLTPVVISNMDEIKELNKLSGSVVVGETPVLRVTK
Source text: as §1, §2, §3

CC(=O)C(=O)O = test: FrsA-catalysed pyruvate decarboxylation, ADH/NADH coupled acetaldehyde assay; assay type: biochemical, Vibrio vulnificus; settings: other: wild-type FrsA, pH 7.0, 37° C., 1 nM FrsA
Procedure: FrsA enzymatic analysis was performed in 50 mM sodium phosphate solution (pH 7.0) containing 1 mM DTT and various concentrations of pyruvate. To measure the amount of acetaldehyde produced from pyruvate, 2 mM NADH and 3.7 U of […] was added to the FrsA reaction mixture (8). Cell lysates from wild-type E. coli and frsA mutants (9) were used in the range of 0.005 to 1 mg in amount. The acetaldehyde reaction was initiated by adding FrsA (1 nM) and incubated at 37° C. for 5 min and stopped by adding 50 mM potassium hydrogen phthalate buffer (pH3.0). The residual NADH in the reaction mixture was determined by measuring absorption at 340 nm. For CO2 measurement, FrsA enzyme reaction was performed in 50 mM Tris-HCl buffer (pH 7.0). The amount of carbon dioxide dissolved in the reaction solution was quantified by spectrophotometry after the reaction solution was treated with 10 mM calcium hydroxide (10). Concentrations of the pyruvate and acetaldehyde in the cell lysates and reaction mixtures were determined using Pyruvate Assay Lit (BioVision, USA) and Acetaldehyde UV-method kit (Roche, USA), respectively according to the manufacturer's instruction. To increase the sensitivity of the Acetaldehyde UV-method kit, the reaction mixture was additionally treated with dye (50 ml of 1.0% Tween 20 solution containing 40 mg iodonitrotetrazolium chloride and 10 mg phenazine methosulfate) followed by absorption measurement at 490 nm (11).
Values of Km and Kcat were calculated as follows. The concentration of reaction products were calculated in the mM unit from the absorption values which were obtained for a total of 1 min for each substrate concentration (S). Then initial reaction rate (Vo) for each concentration of the substrate was determined (here the unit is mM(product)/sec/mg(enzyme)). […] Keat value expressed in the unit of sec^−1 was calculated by changing the unit weight of the enzyme to the concentration in mM in the calculated Vmax (mM(product)/sec/mg(enzyme)).

Sequence of Vibrio vulnificus FrsA, wild type, SEQ ID NO: 2, + dephospho-IIA^Glc (A0A3Q0L1G8 entry or part of it): as the sequence (A0A3Q0L1G8 entry or part of it, further chain) above
Sequence of Vibrio vulnificus FrsA, wild type, SEQ ID NO: 2, + dephospho-IIA^Glc (Q8DF91 whole entry): as the sequence (Q8DF91 whole entry) above

Compound | Km [1] [µM] | Km [2] [µM] | Km (CC(=O)C(=O)O) [µM] | kcat (CC(=O)C(=O)O) [s⁻¹] | kcat/Km (CC(=O)C(=O)O) [M⁻¹ s⁻¹]
CC(=O)C(=O)O [pyruvate] | 390 ± 30 | 390 ± 10 |  |  | 
Vibrio vulnificus FrsA, wild type, SEQ ID NO: 2 (Vibrio vulnificus CMCP6) |  |  | 390 ± 20 | 1372 ± 11 | 3.52e+06 ± 183000
